Experimental data from PMC10827111 (bioRxiv, 2024).

Experiments:
Assay in all cases: ELISA
[1] = molecular target: MERS-CoV S2 subdomain (MERS-CoV, strain ; stand-in …, UniProt K0BRG7)
[2] = molecular target: SARS-CoV-2 S2 subdomain (Sino Biological) (SARS-CoV-2 (Wuhan-Hu-1 reference), UniProt P0DTC2)
[3] = molecular target: HCoV-OC43 S-2P (HCoV-OC43 (strain ; numbering …, UniProt P36334, stabilised)

Measured: binding result

B1: antibody 54043-5 (IgG) (antibody, V domains shown)
VH: QVQLQESGPGLVKPSQTLSLTCTVSGDSISNSSYYWSWIRQYPSRRLEWIGYIYYNGRTYYNPSLNSRLSISLDTSKNHFSLKLSSLTAADTALYYCARGFLGYCAGGSCFLNWLDPWGQGTLVTVSS
VL: EIIMTQSPATLSVSPGGRATLSCRASQSVSNNLAWYQQKPGQTPRLLIHGASTRATGIPARFSGSGSGTEFTLTISSLQSEDFAVYYCHQYHNWLLTFGGGTKVEIK
binds: all assays above
